Assay results taken from the supplement of paper PMC9732359.
± gives the uncertainty stated by the source.

Test: protein stability index of a GFP-peptide fusion (yeast GPS) (PSI 1-4); higher = more stable; sorted into four equal gates, so the index is relative within each strain
Conditions: pdr5∆
Outline: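 Plasmids isolated from each sorting gate were PCR-amplified and Illumina-sequenced, and barcodes assigned the reads to strains. The gates, four of equal size, were set by GFP/Cherry fluorescence ratio on mid-log cultures in leucine-free medium. These cultures were yeast carrying a pooled library of tiled 17-residue yeast protein peptides fused downstream of GFP on a plasmid that also expresses Cherry. The protein stability index is the sum of every gate's read frequency times its gate number.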
Work on VAEGKSKQDASPKPYAV [RPL8A] yielded a protein stability index of 3.29 ± 0.059. For VAEIVQNVISLGSLTVE [RPC82], the protein stability index was 2.23 ± 0.098. For VAFVCSPISDSRDELIR [RPN10], the protein stability index was 2.56 ± 0.11. In the case of VAGAGAASGAAAAGGDA [RPP1B], the protein stability index is reported as 2.79 ± 0.092. With VAGGVAGGEAGEAEAEK [RPP1A] the protein stability index was 3.26 ± 0.17.

Same assay, conditions: san1∆
TKKKRKPTEVNDSENNS [ITC1] showed a protein stability index of 3.16 ± 0.045. For TKKLIQKTVFDELCKLV [SRP54], the protein stability index was 1.25 ± 0.18. With TKKPLMVKNVKPSSPPD [SIR4] the protein stability index was 2.55 ± 0.058. TKQRLDAYYDLELRNSV [PRP8] gave a protein stability index of 2.86 ± 0.039. With TKRSIAIVFEEIKNWIS [YMR129W/POM152] the protein stability index was 1.44 ± 0.076. TLERVHLSYCSNLTIYP [GRR1] showed a protein stability index of 2.99 ± 0.15. For TLIDLVKHSPGAIKPFT [ECM29], the protein stability index was 1.95 ± 0.2. TLIIDQVRKDLGNVIVP [NUT1] showed a protein stability index of 3.12 ± 0.21. Work on TLISENWWHSEFEIPVS [BRR2] yielded a protein stability index of 1.8 ± 0.1. TLIVVPFNQGSKQDVEA [FAS2] gave a protein stability index of 3.13 ± 0.09. TLQDFHLIFSNARIYNT [SNF2] showed a protein stability index of 1.63 ± 0.18. Sequence TLSEPVQGELKPTVILK [FAS1] has a protein stability index of 2.08 ± 0.072. In the case of TMANILYYPQKPLGTTR [RPB2], the protein stability index is reported as 2.27 ± 0.074. With TMFTAEQSELLKAQITS [SNF2] the protein stability index was 2.57 ± 0.058. For TMTMDVFNDAHVLNKVT [RPN1], the protein stability index was 2.4 ± 0.073. With TMTYEEVAKRLVELMFI [FAS1] the protein stability index was 2.52 ± 0.084. Sequence TNAAFPFHDPEARLFNI [ECM29] has a protein stability index of 2.42 ± 0.11. In the case of TNGNNAGGGSNKSSVRP [MED6], the protein stability index is reported as 2.77 ± 0.1. With TNKGPLAQIWLASNMSN [MCD1] the protein stability index was 1.26 ± 0.2. For TNKLLFKRVSQTFEAKL [NUT1], the protein stability index was 1.74 ± 0.087. In the case of TNTHPNFLSKIRNINVQ [SNF2], the protein stability index is reported as 1.49 ± 0.09. In the case of TPDPSELAAKEEPAKEE [FAS2], the protein stability index is reported as 2.693 ± 0.026. Work on TPDTKNFFHAKKKDPVN [SNF12] yielded a protein stability index of 3.1 ± 0.068. TPEKDLFIGLFTRPLFV [YCS4] showed a protein stability index of 1.96 ± 0.27. With TPMTRISELPPQIRQEI [YGL172W/NUP49] the protein stability index was 2.65 ± 0.051. Work on TPPVVVVGVVGYVETPR [RPL3] yielded a protein stability index of 1.46 ± 0.072. For TPSDLSESGSKLNVDQF [POP1], the protein stability index was 3.19 ± 0.072. For TPSFSFGAKSDENKAGA [YJL041W/NSP1], the protein stability index was 3.17 ± 0.15. TQAIADIVQYHLELYTS [PRE3] showed a protein stability index of 1.77 ± 0.069. In the case of TQDESEIKDAETSCDNY [SMC4], the protein stability index is reported as 3.4 ± 0.056. Work on TQEFSKNYTTETDNEMN [SIR3] yielded a protein stability index of 3.64 ± 0.075. For TQKDSARVSPRNNVANK [YAR002W/NUP60], the protein stability index was 3.23 ± 0.096. With TQKRLAASVVGVGKRKV [RPL19A] the protein stability index was 1.13 ± 0.11. In the case of TQLKKRAVSGVELRIYV [POP7], the protein stability index is reported as 2.44 ± 0.14. In the case of TQVRVEFLEDTSRTIVR [RPS28A], the protein stability index is reported as 2.91 ± 0.095. In the case of TRDETVSLIKKYKLISR [YML103C/NUP188], the protein stability index is reported as 2.51 ± 0.11. TRFKAVVVVGDSNGHVG [RPS2] showed a protein stability index of 1.84 ± 0.11. For TRIFQALPRKLRRRTAS [POP1], the protein stability index was 2.68 ± 0.14. With TRKGYIPSSKYAYMMNS [YLR018C/POM34] the protein stability index was 2.98 ± 0.21. For TRKSLNNAVRFSKQCLI [ECM29], the protein stability index was 2.42 ± 0.06. Sequence TRPISSQVLDLAKKIAP [SMC2] has a protein stability index of 2.59 ± 0.28. Sequence TRTIKQNNFHVLIDLLN [RGR1] has a protein stability index of 1.87 ± 0.15. Sequence TSADLKSKAEELTQVPS [UBP6] has a protein stability index of 2.79 ± 0.13. TSDNLLTITKAAGANVD [RPP1B] showed a protein stability index of 3.05 ± 0.08. In the case of TSDSESTLYKYLKESKR [SWI3], the protein stability index is reported as 2.89 ± 0.12. Sequence TSFDRTKKTITPMGGFV [RPL3] has a protein stability index of 2.79 ± 0.089. With TSGTSSEQFNVWDWNNW [GAL11] the protein stability index was 2.71 ± 0.073. TSIGIKCNDGVVFAVEK [PRE10] gave a protein stability index of 2.61 ± 0.29. Work on TSILELGQLYVTMGAKD [RPN6] yielded a protein stability index of 2.96 ± 0.071. Sequence TSNDASNKKETKKKRKP [ITC1] has a protein stability index of 3.21 ± 0.088. In the case of TSNGLKKNPNWLEEYHP [FAS1], the protein stability index is reported as 3.48 ± 0.098. TSNNETNNGNDDNETEN [GRR1] showed a protein stability index of 3.14 ± 0.053. For TSQKMKKMVYVLDSMTK [SRP54], the protein stability index was 3.13 ± 0.21. In the case of TSRVTGILLLDSLIQLA [YJL039C/NUP192], the protein stability index is reported as 1.59 ± 0.094. In the case of TSSIFQESFNSVQNLDQ [NUT1], the protein stability index is reported as 2.98 ± 0.048. Sequence TSSRGRDHKSYSQSPPR [SMC4] has a protein stability index of 2.59 ± 0.088. TSTGTTIVGVKFNNGVV [PUP1] gave a protein stability index of 3.01 ± 0.14. Work on TSVDGKKRSKVRKETYS [HTB2] yielded a protein stability index of 3.15 ± 0.18. Sequence TSVIQDLSEKILNDIET [BRR2] has a protein stability index of 3.21 ± 0.061. In the case of TTDKNTTDDKSMDTKKK [BRN1], the protein stability index is reported as 3.61 ± 0.039. TTDMISVLYQLSTSAFM [YML031W/NDC1] gave a protein stability index of 1.75 ± 0.24. Sequence TTNNNNTNNNNTNNNNN [SWI1] has a protein stability index of 3.43 ± 0.06. Work on TTPKKIKHKHKKVKLAV [RPS31] yielded a protein stability index of 1.34 ± 0.2. For TTPVKLGPGIYCDPNTQ [RRP40], the protein stability index was 2.74 ± 0.06. TTQGGLTSVTRHGFNRS [RPO21] gave a protein stability index of 3.15 ± 0.077. Sequence TTTTANINEVKKASDLV [NUT1] has a protein stability index of 2.84 ± 0.067. Work on TTYTYQQPNPLQDLISV [ROX3] yielded a protein stability index of 1.7 ± 0.11. For TVASSKVGYTLPSHIIS [RPL4A], the protein stability index was 3.09 ± 0.035. In the case of TVEALDFREKALYIAMM [RET1], the protein stability index is reported as 3.29 ± 0.076. With TVKLYLPEILNVLCVNI [ECM29] the protein stability index was 1.5 ± 0.074. In the case of TVKTNDELMVIYISNLV [RPN8], the protein stability index is reported as 1.51 ± 0.15. TVLCTPTGGKAKLSEGT [RPS27B] gave a protein stability index of 3.15 ± 0.045. In the case of TVNGQARDLATMTYEEV [FAS1], the protein stability index is reported as 3.03 ± 0.065. Work on TVPEYLKTADNRDRSFQ [PGD1] yielded a protein stability index of 3.3 ± 0.038. For TVPNINFSGLNGGITNT [YOR098C/NUP1], the protein stability index was 3.74 ± 0.11. With TVQENELLKSSLQKAGS [AAR2] the protein stability index was 3.01 ± 0.073. Sequence TVRVDKASTYGELVLDI [SNF12] has a protein stability index of 2.02 ± 0.086. TVTSLDVVYALKRQGRT [HHF1] showed a protein stability index of 3.18 ± 0.086. For TVVTVVSTAKFSGKYLK [RPL22A], the protein stability index was 3.38 ± 0.17. Work on TWIQQFKSTMLQVSEKD [ARP7] yielded a protein stability index of 1.27 ± 0.14. For TWSLILNECLKTIQINN [YML031W/NDC1], the protein stability index was 1.3 ± 0.1. In the case of TWTNSKIFIKDPKFVNS [YML103C/NUP188], the protein stability index is reported as 1.71 ± 0.11. With TYDKETITDLIEQGIPK [SIR4] the protein stability index was 3.35 ± 0.04. TYLTQEILILINDPTNK [SIN4] showed a protein stability index of 1.36 ± 0.091. TYQTERFTKFSDTLKEF [YDL116W/NUP84] showed a protein stability index of 1.73 ± 0.12. For VAADGKLVTYIVKFKQK [YLR335W/NUP2], the protein stability index was 2.09 ± 0.064. In the case of VAAKWNTSLISLFTYFR [PRP8], the protein stability index is reported as 1.74 ± 0.18. Sequence VAARMFHILLKLILEWV [ECM29] has a protein stability index of 1.91 ± 0.12. For VAATNTPIIFIGTGEHI [SRP54], the protein stability index was 2.26 ± 0.083. Sequence VAEGKSKQDASPKPYAV [RPL8A] has a protein stability index of 3.04 ± 0.07. In the case of VAEIVQNVISLGSLTVE [RPC82], the protein stability index is reported as 1.97 ± 0.14. VAFVCSPISDSRDELIR [RPN10] showed a protein stability index of 1.67 ± 0.12. Work on VAGAGAASGAAAAGGDA [RPP1B] yielded a protein stability index of 3.22 ± 0.22.

Same assay, conditions: ubr1∆
For TKKKRKPTEVNDSENNS [ITC1], the protein stability index was 3.27 ± 0.054.
